# According to patent publication US20060257866, “Methods for identifying small molecules that modulate premature translation termination and nonsense mediated mrna decay” (published 2006):
# Assays:
# [1] = molecular target: T1, Tat47-58 peptide (HIV-1 Tat) (HIV-1); assay: EMSA; capillary electrophoresis mobility shift; TK buffer 0.5 mM MgCl2; peptide 0.1-1.6 mM as printed; conditions: protein: synthetic; label: 5'-fluorescein; hairpin
# T1 chain: YGRKKRRQRRRP
# [2] = molecular target: T1, Tat47-58 peptide (HIV-1 Tat); assay: EMSA; TK buffer: 50 mM Tris-HCl pH 7.4, 20 mM KCl, 0.5 mM MgCl2, 0.1% Triton X-100; peptide 0.1-1.6 uM; annealed from 90 C to 24 C; gel at 4 C; conditions: protein: synthetic; label: 5'-fluorescein, 3'-32P cytidine bisphosphate; hairpin
Binder,binding result [1],binding result [2]
GGCAGAUCUGAGCCUGGGAGCUCUCUGCC (ssRNA) [HIV-1 TAR RNA oligonucleotide (fluorescein only)],binds,
GGCAGAUCUGAGCCUGGGAGCUCUCUGCC (ssRNA) [HIV-1 TAR RNA oligonucleotide],,binds
